In US20200024330A1:
Where a chain is given by its changes, count along the chain named.

B1: PGT-135 (antibody, V domains shown)
VH: QLQMQESGPGLVKPSETLSLSCTVSGDSIRGGEWGDKDYHWGWVRHSAGKGLEWIGSIHWRGTTHYKESLRRRVSMSIDTSRNWFSLRLASVTAADTAVYFCARHRHHDVFMLVPIAGWFDVWGPGVQVTVSS
VL: EIVMTQSPDTLSVSPGETVTLSCRASQNINKNLAWYQYKPGQSPRLVIFETYSKIAAFPARFVASGSGTEFTLTINNMQSEDVAVYYCQQYEEWPRTFGQGTKVDIK
B2: PGT-126 (antibody, V domains shown)
VH: QPQLQESGPGLVEASETLSLTCTVSGDSTAACDYFWGWVRQPPGKGLEWIGGLSHCAGYYNTGWTYHNPSLKSRLTISLDTPKNQVFLKLNSVTAADTAIYYCARFDGEVLVYHDWPKPAWVDLWGRGTLVTVSS
VL: QSALTQPPSASGSPGQSISISCTGTSNRFVSWYQQHPGKAPKLVIYGVNKRPSGVPDRFSGSKSGNTASLTVSGLQTDDEAVYYCSSLVGNWDVIFGGGTKLTVL
B3: PGT-127 (antibody, V domains shown)
VH: QPQLQESGPGLVEASETLSLTCTVSGDSTGRCNYFWGWVRQPPGKGLEWIGSLSHCRSYYNTDWTYHNPSLKSRLTISLDTPKNQVFLRLTSVTAADTATYYCARFGGEVLVYRDWPKPAWVDLWGRGTLVVTVS
VL: B2 VL with S19T, R28N, H36Y, G47E, N66S, T77A, A81G

Assays:
[1] = target: HIV-1 92BR020 envelope glycoprotein (Env) (HIV-1); test: cell-based or functional assay
[2] = target: HIV-1 92RW020 envelope glycoprotein (Env) (HIV-1); test: cell-based or functional assay
[3] = target: HIV-1 93IN905 envelope glycoprotein (Env) (HIV-1); test: cell-based or functional assay
[4] = target: HIV-1 93UG077 envelope glycoprotein (Env) (HIV-1); test: cell-based or functional assay
[5] = target: HIV-1 APV13 envelope glycoprotein (Env) (HIV-1); test: cell-based or functional assay
[6] = target: HIV-1 APV17 envelope glycoprotein (Env) (HIV-1); test: cell-based or functional assay
[7] = target: HIV-1 APV6 envelope glycoprotein (Env) (HIV-1); test: cell-based or functional assay
[8] = target: HIV-1 Env of isolate 93IN905 (HIV-1); test: cell-based or functional assay
[9] = target: HIV-1 JRCSF envelope glycoprotein (Env) (HIV-1) (UniProt P20871); test: cell-based or functional assay
[10] = target: HIV-1 MGRM-A-010 envelope glycoprotein (Env) (HIV-1); test: cell-based or functional assay
[11] = target: HIV-1 MGRM-C-026 envelope glycoprotein (Env) (HIV-1); test: cell-based or functional assay
[12] = target: HIV-1 NL43 envelope glycoprotein (Env) (HIV-1); test: cell-based or functional assay
[13] = target: JR-FL gp120 ΔV3 (HIV-1 (isolate JR-FL)); test: ELISA on coated gp120; EC50 by nonlinear regression
[14] = target: Env of the clade AE HIV-1 pseudoviruses of the cross-clade 162-pseudovirus panel (n = 10); test: cell-based or functional assay
[15] = target: HIV-1 Env of isolate 92RW008 (HIV-1); test: cell-based or functional assay
[16] = target: HIV-1 Env of isolate 92UG031 (HIV-1); test: cell-based or functional assay
[17] = target: HIV-1 Env of isolate 92UG037 (HIV-1); test: cell-based or functional assay
[18] = target: HIV-1 Env of isolate 92WR009 (HIV-1); test: cell-based or functional assay
[19] = target: HIV-1 Env of isolate 92WR020 (HIV-1); test: cell-based or functional assay
[20] = target: HIV-1 Env of isolate 92WR021 (HIV-1); test: cell-based or functional assay
[21] = target: HIV-1 Env of isolate 92WR024 (HIV-1); test: cell-based or functional assay
[22] = target: HIV-1 Env of isolate 92WR026 (HIV-1); test: cell-based or functional assay
[23] = target: HIV-1 Env of isolate 93UG077 (HIV-1); test: cell-based or functional assay
[24] = target: HIV-1 Env of isolate 93WR029 (HIV-1); test: cell-based or functional assay
[25] = target: HIV-1 Env of isolate 94KE105 (HIV-1); test: cell-based or functional assay
[26] = target: HIV-1 Env of isolate 94UG103 (HIV-1); test: cell-based or functional assay
[27] = target: HIV-1 Env of isolate MGRM-A-001 (HIV-1); test: cell-based or functional assay
[28] = target: HIV-1 Env of isolate MGRM-A-003 (HIV-1); test: cell-based or functional assay
[29] = target: HIV-1 Env of isolate MGRM-A-004 (HIV-1); test: cell-based or functional assay
[30] = target: HIV-1 Env of isolate MGRM-A-006 (HIV-1); test: cell-based or functional assay
[31] = target: HIV-1 Env of isolate MGRM-A-007 (HIV-1); test: cell-based or functional assay
[32] = target: HIV-1 Env of isolate MGRM-A-008 (HIV-1); test: cell-based or functional assay
[33] = target: HIV-1 Env of isolate MGRM-A-009 (HIV-1); test: cell-based or functional assay
[34] = target: HIV-1 Env of isolate MGRM-A-010 (HIV-1); test: cell-based or functional assay
[35] = target: HIV-1 Env of isolate MGRM-A-012 (HIV-1); test: cell-based or functional assay
[36] = target: HIV-1 Env of isolate MGRM-A-013 (HIV-1); test: cell-based or functional assay
[37] = target: HIV-1 Env of isolate MGRM-A-014 (HIV-1); test: cell-based or functional assay
[38] = target: HIV-1 Env of isolate MGRM-AE-001 (HIV-1); test: cell-based or functional assay
[39] = target: HIV-1 Env of isolate MGRM-AE-002 (HIV-1); test: cell-based or functional assay
[40] = target: HIV-1 Env of isolate VLGCA1 (HIV-1); test: cell-based or functional assay

Row | Binder | IC50 neutralization [1] [µg/mL] | IC50 neutralization [2] [µg/mL] | IC50 neutralization [3] [µg/mL] | IC50 neutralization [4] [µg/mL] | IC50 neutralization [5] [µg/mL] | IC50 neutralization [6] [µg/mL] | IC50 neutralization [7] [µg/mL] | IC50 neutralization [9] [µg/mL] | IC50 neutralization [10] [µg/mL] | IC50 neutralization [11] [µg/mL] | IC50 neutralization [12] [µg/mL] | IC50 (µg/mL), pseudovirus neutralization [15] [µg/mL] | IC50 (µg/mL), pseudovirus neutralization [16] [µg/mL] | IC50 (µg/mL), pseudovirus neutralization [17] [µg/mL] | IC50 (µg/mL), pseudovirus neutralization [18] [µg/mL] | IC50 (µg/mL), pseudovirus neutralization [19] [µg/mL] | IC50 (µg/mL), pseudovirus neutralization [20] [µg/mL] | IC50 (µg/mL), pseudovirus neutralization [21] [µg/mL] | IC50 (µg/mL), pseudovirus neutralization [22] [µg/mL] | IC50 (µg/mL), pseudovirus neutralization [23] [µg/mL] | also measured
1 | B1 | 0.104 | 0.157 | 0.0183 | > 10 | 0.545 | > 10 | > 10 | 0.113 | > 10 | 0.0123 | 6.79 | – | – | – | – | – | – | – | – | – | Primary Neutralization Index (B cell culture well 5343 B8) [8]: 43; Primary Neutralization Index (B cell culture well 5344 E16) [8]: 2.3; EC50 [13]: 0.2 µg/mL
2 | B2 | 0.0163 | 0.0046 | 0.0194 | 0.0256 | 0.012 | 0.501 | 0.0249 | 0.0061 | 0.0033 | 0.0076 | > 10 | 0.008 | > 50 | 0.011 | > 50 | 0.006 | 0.006 | 42 | 0.008 | 0.02 | Median IC50 against viruses neutralized with an IC50 <50 µg/ml [14]: 1.77 µg/mL; IC50 (µg/mL), pseudovirus neutralization [24]: > 50 µg/mL; IC50 (µg/mL), pseudovirus neutralization [25]: 0.006 µg/mL; IC50 (µg/mL), pseudovirus neutralization [26]: 0.008 µg/mL; IC50 (µg/mL), pseudovirus neutralization [27]: > 50 µg/mL; IC50 (µg/mL), pseudovirus neutralization [28]: > 50 µg/mL; IC50 (µg/mL), pseudovirus neutralization [29]: > 50 µg/mL; IC50 (µg/mL), pseudovirus neutralization [30]: > 50 µg/mL; IC50 (µg/mL), pseudovirus neutralization [31]: > 50 µg/mL; IC50 (µg/mL), pseudovirus neutralization [32]: > 50 µg/mL; IC50 (µg/mL), pseudovirus neutralization [33]: 0.004 µg/mL; IC50 (µg/mL), pseudovirus neutralization [34]: 0.002 µg/mL; IC50 (µg/mL), pseudovirus neutralization [35]: 0.097 µg/mL; IC50 (µg/mL), pseudovirus neutralization [36]: 0.006 µg/mL; IC50 (µg/mL), pseudovirus neutralization [37]: 0.01 µg/mL; IC50 (µg/mL), pseudovirus neutralization [38]: 9.68 µg/mL; IC50 (µg/mL), pseudovirus neutralization [39]: > 50 µg/mL; IC50 (µg/mL), pseudovirus neutralization [40]: > 50 µg/mL
3 | B3 | – | – | – | – | – | – | – | – | – | – | – | 0.012 | > 50 | 0.014 | > 50 | 0.01 | 0.011 | > 50 | 0.024 | 0.055 | IC50 (µg/mL), pseudovirus neutralization [24]: > 50 µg/mL; IC50 (µg/mL), pseudovirus neutralization [25]: 0.023 µg/mL; IC50 (µg/mL), pseudovirus neutralization [26]: 0.017 µg/mL; IC50 (µg/mL), pseudovirus neutralization [27]: > 50 µg/mL; IC50 (µg/mL), pseudovirus neutralization [28]: > 50 µg/mL; IC50 (µg/mL), pseudovirus neutralization [29]: > 50 µg/mL; IC50 (µg/mL), pseudovirus neutralization [30]: > 50 µg/mL; IC50 (µg/mL), pseudovirus neutralization [31]: > 50 µg/mL; IC50 (µg/mL), pseudovirus neutralization [32]: > 50 µg/mL; IC50 (µg/mL), pseudovirus neutralization [33]: 0.013 µg/mL; IC50 (µg/mL), pseudovirus neutralization [34]: 0.017 µg/mL; IC50 (µg/mL), pseudovirus neutralization [35]: 0.105 µg/mL; IC50 (µg/mL), pseudovirus neutralization [36]: 0.029 µg/mL; IC50 (µg/mL), pseudovirus neutralization [37]: 0.04 µg/mL; IC50 (µg/mL), pseudovirus neutralization [38]: > 50 µg/mL; IC50 (µg/mL), pseudovirus neutralization [39]: > 50 µg/mL; IC50 (µg/mL), pseudovirus neutralization [40]: > 50 µg/mL
